Data from the nanobody polyreactivity screen of Harvey et al. (2022).

Assay: yeast display, Sf9 membrane polyspecificity reagent, FACS + sequencing; frameworks hold sequencing errors
How it was run: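 Sorting gates, low and high (top ~1%), were placed on anti-HA fluorescence to track expression and on streptavidin fluorescence to track reagent binding. A clone's polyreactivity label is taken from the gate it came out of. The reagent was 10% biotinylated, detergent-solubilized Sf9 membrane, applied for 1 hour at 4 °C to galactose-induced yeast display cells.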

Sequence | polyreactivity (PSR sort gate)
QVQLVESGGGLVQAGGSLRLSCAASGSIFVTYAMGWYRQAPGKERELVAAINYSGGSTYYADSVKGRFTISRDNAKNTVYLQMNSLKPEDTAVYYCAADERVDQGWIRMDYWGQGTQVTVSS | low polyreactivity
QVQLVESGGGLVQAGGSLRLSCAASGSIFVTYAMGWYRQAPGKERELVAAITWNGGSTYYADSVKGRFTISRDNAKNTVYLQMNSLKPEDTAVYYCAADSRYRGNYWGQGTQVTVSS | high polyreactivity
QVQLVESGGGLVQAGGSLRLSCAASGSIFVTYAMGWYRQAPGKERELVATITSSGGSTYYADSVKGRFTISRDNAKNTVYLQMNSLKPEDTAVYYCATDFGASVWDYFRRVYYWFGYWGQGTQVTVSS | low polyreactivity
QVQLVESGGGLVQAGGSLRLSCAASGSIFVVNAMGWYRQAPGKERELGASISQSGDNTYYADSVKGRFTISRDNAKNTVYLQMISLKTEDTAVYYCNAYGGYPEVDYWGQGTQVTVSS | low polyreactivity
QVQLVESGGGLVQAGGSLRLSCAASGSIFVVNTLGWYRQAPGKEREFVAPISYNGGRTSYADSVKGRFTISRDNAKNTVYLQMNSLKPEDTEVYYCAAGGSVPRAYHISYFTQYDYWGQGTQVTVSS | low polyreactivity
QVQLVESGGGLVQAGGSLRLSCAASGSIFVWYDMGWYRQAPGKERELVATFSLSGVSTYYADSVKGRFTISRDNAKNTVYLQMNSLKPEDSAVYYCAADFVEQGEDDYWGQGTQVTVSS | low polyreactivity
QVQLVESGGGLVQAGGSLRLSCAASGSIFVWYVMGWYRQAPGKERELVAAITWSAARTYDADSVKGRFTISRDNAKNTVYLQMNSLKPADTAVYYCAADHVSYQPSSRIFDYWGQGTQVTVSS | low polyreactivity
QVQLVESGGGLVQAGGSLRLSCAASGSIFVYNAMGWYRQAPGKEREMVARITYIGTSTYYADSVKGRFTISRDNAKNSVYLQMNSLKPEDTGVYYCNARRRHEGSPPYGYWGQGTQVTVSS | high polyreactivity
QVQLVESGGGLVQAGGSLRLSCAASGSIFVYNDKGWYRQAPGKERELVADISSGGTTDYADSVKGRFTISRDNAKNTVYLQMNSLKPEDTAVYYCAAESYIEYYLKYDYWGQGTQVTVSS | low polyreactivity
QVQLVESGGGLVQAGGSLRLSCAASGSIFVYNDMGWYRQAPGKERELVAGIDWSGDRTYADSVKGRFTSSRDNAKNTVYLHMNSLKPEDTAVYYCNADEWRWDEIIPYAVDYWGQGTQVTVSS | low polyreactivity
QVQLVESGGGLVQAGGSLRLSCAASGSIFVYNPMGSYREPPGKERELVAAISQRGGSTYYADSVKGRFTISRDNANNTVYLQMYSLKPEDTAVYYCAAGPGDSGDDYWGQGTQVTVSS | low polyreactivity
QVQLVESGGGLVQAGGSLRLSCAASGSIFVYYAMGWYRQAPGKERELVAAISSRGGSTYYADSVKGRFTISRDNAKNTVYLQMNSLKPEDTAVYYCAAYTLDGVNGRVLDDYWGQGTQVTVSS | low polyreactivity
QVQLVESGGGLVQAGGSLRLSCAASGSIFVYYTMGWYRQAPGKESELVAAISISGTSTYYADSVKGRFTISRDNAKYTVYLQLNSLKPEDTAVYYCAADTFYGEDYWGQGTQVTVSS | low polyreactivity
QVQLVESGGGLVQAGGSLRLSCAASGSIFVYYTMGWYRQSPGKEREMVAAITYSGGSKYYADSVKGRFTISRDNAKNTVYLQMNRLKPEDTAVYYCNAKSAAHRYVRRHDYWGQGTQVTVSW | low polyreactivity
QVQLVESGGGLVQAGGSLRLSCAASGSIFWAYTMGWYRQAPGKERELVAAISASGGSTYYADSVKGRFTISRDNAKNTFYLQMNSLKPEDTAVYYCNKDYHRPYGGGSKGDYWGQGTQVTVSS | low polyreactivity
QVQLVESGGGLVQAGGSLRLSCAASGSIFWFNAMGWYRQAPGKERELVAAIRRIGGSTYYADSVKGRFTISRDNAKNTVYLQMNSLKPEDTAVYYCAAGVTFRGASYGYWGQGTQVTVSS | high polyreactivity

Sequence | polyreactivity (PSR sort gate)
QVQLVESGGGLVQAGGSLRLSCAASGSIFWFYAMGWYRQAPGKERELVAAISYSGGITYYADSVKGRFTISRDNAKNTVYLQMNSLKPEDTAVYYCNADGPSTPWVDYGYWGQGTQVTVSS | low polyreactivity
QVQLVESGGGLVQAGGSLRLSCAASGSIFWGNAMGWYRPAPGKERELVASISDSGGSTYADSVKGRFTISRDNAKNTVYLQMNSLKPEDTAVYYCAADDWYSAGIRNWYYGGYDYWGQGTQVTVSS | low polyreactivity
QVQLVESGGGLVQAGGSLRLSCAASGSIFWGNAMGWYRQAPGKEREMVAAITWSGGSTYYADSVKGRFTISRDNAKNTVYLQMNSLKPEDTAVYYCYAVYIGSRRRYEYDYWGQGTQVTVSS | high polyreactivity
QVQLVESGGGLVQAGGSLRLSCAASGSIFWGYAMGWYRPAPGKERELVATIRNRGGSTYYADSVKGRFTISRDNAKNTVYLQMNSLKPEDTAVYYCAAVSYRQYYGWGNYWGQGTQVTVSS | low polyreactivity
QVQLVESGGGLVQAGGSLRLSCAASGSIFWGYAMGWYRQAPGKERELVAAIRNGGSTNYADSVKGRFTISRDNAKNTVYLQMNSLKPEDTAVYYCAKYYYYLRSARKYDYWGQGTQVTVSS | high polyreactivity
QVQLVESGGGLVQAGGSLRLSCAASGSIFWGYAMGWYRQAPGKERELVASSTNYADSVKGRFTISRDNAKNTVYLQMNSLKPEDTAVYYCAREQGVNRNHDYWGQGTQVTVSS | low polyreactivity
QVQLVESGGGLVQAGGSLRLSCAASGSIFWGYAMGWYRQAPGKERELVAVITWSVGRTYYADSVKGRFTISRDNAKNTVYLQMNSLKPEDTAVYYCNAKSWYGGSYYRYDYWGQGTQVTVSS | low polyreactivity
QVQLVESGGGLVQAGGSLRLSCAASGSIFWIYAMGCYRQAPGKERELVATITRRGGSTYYADSVKGRFTISRDNAKNTVYLQMNSLKPEDTAVYYCATEPGYTYLTSYKYDYWGQGTQVTVSS | low polyreactivity
QVQLVESGGGLVQAGGSLRLSCAASGSIFWKNVMGSYRQAPGKERELVAGISQNGGSTTYADSVKGRFTISRDNAKNTVYLQMNSLKPEDTAVYYCAAKRYGPFKYGYWGQGTQVTVSS | high polyreactivity
QVQLVESGGGLVQAGGSLRLSCAASGSIFWKYAMGWYRQAPGKERELVAAISRSSSTTYYADSVKGRFTISRDNAKNTVYLQMNSLKPEDTAVYYCAAYYRSRVSDDYWGQGTQVTVSS | high polyreactivity
QVQLVESGGGLVQAGGSLRLSCAASGSIFWLYAMGWYRQAPGKERELVAAITRRGGSTYYADSVKGRFTISRDNAKNTVYLQMNSLKPEDTAVYYCNRLYYSGSGASLDYWGQGTQVTVSS | high polyreactivity
QVQLVESGGGLVQAGGSLRLSCAASGSIFWLYAMGWYRQAPGKERELVAAITWSGGRTYYADSVKGRFTISRDNAKNTVYLQMNSLKPEDTAVYYCARRQWPWYSNPARGGKYDYWGQGTQVTVSS | low polyreactivity
QVQLVESGGGLVQAGGSLRLSCAASGSIFWNNAMGWYIQAPGKEREWVAGISSAGSTNYADSVKGRFTISRDNAKNTVYLQMNSLKPEDTAVYYCAASYFRDYVWLRSNVRYYYWGQGTQVTVSS | low polyreactivity
QVQLVESGGGLVQAGGSLRLSCAASGSIFWQTPMGWYRQAPGKERELVAAITRSGGSTYYADSVKGRFTISRDNAKITVYLQMNSLKPEDTLVYYCKKYGYKGGVGDDYWGQGTQVTVSS | high polyreactivity
QVQLVESGGGLVQAGGSLRLSCAASGSIFWRYAMGWYRQAPGKERELVAVISRSGGRTYYADSVKGRFTISRDNAKNTVYLQMNSLKPEDTAVNYCAADYYGVYSKRYGFDYWGQGTQVTVSS | high polyreactivity
